# Experimental data taken from publication PMC9143231, “Parapoxvirus Interleukin-10 Homologues Vary in Their Receptor Binding, Anti-Inflammatory, and Stimulatory Activities” (Pathogens, 2022).
# T1: hIL-10R1-Fc chimeric protein (extracellular domain of human IL-10 receptor 1 fused to Fc) (human, UniProt Q13651 22-235)
# T1 construct: human interleukin-10 receptor subunit 1 (IL-10R1), extracellular domain; No catalogue number printed; also called soluble hIL-10R1-Fc fusion protein; source: bought: R&D Systems
# T1 sequence: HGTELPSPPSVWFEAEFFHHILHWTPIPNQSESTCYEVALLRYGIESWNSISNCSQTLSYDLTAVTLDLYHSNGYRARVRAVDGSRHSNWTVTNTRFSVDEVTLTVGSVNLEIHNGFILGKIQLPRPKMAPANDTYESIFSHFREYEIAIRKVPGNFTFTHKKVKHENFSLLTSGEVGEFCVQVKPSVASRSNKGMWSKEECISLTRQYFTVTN
# B1: human interleukin-10, FLAG-tagged (ligand, UniProt P22301 19-178, looked up)
# chain: SPGQGTQSENSCTHFPGNLPNMLRDLRDAFSRVKTFFQMKDQLDNLLLKESLLEDFKGYLGCQALSEMIQFYLEEVMPQAENQDPDIKAHVNSLGENLKTLRLRLRRCHRFLPCENKSKAVEQVKNAFNKLQEKGIYKAMSEFDIFINYIEAYMTMKIRN
# notes: also called hIL-10; human IL-10; not shown: FLAG, C-terminal, kept
# Assays:
# [1] = biological target: hIL-10R1-Fc chimeric protein (extracellular domain of human IL-10 receptor 1 fused to Fc) (human) (UniProt Q13651); assay: ELISA; […] (400 ng/mL) […]
# [2] = biological target: Orf virus interleukin-10, FLAG-tagged (Orf virus); assay: non-reducing SDS-PAGE with anti-FLAG Western blot
# [3] = biological target: hIL-10R1-Fc chimeric protein (extracellular domain of human IL-10 receptor 1 fused to Fc) (human) (UniProt Q13651); assay: ELISA; competitive displacement ELISA: hIL-10 (400 ng/mL) coated on Maxisorp wells; serially diluted IL-10 preincubated with 300 ng/mL hIL-10R1-Fc in PBS, 0.4% BSA, 0.02% Tween20 at 25 °C for 1 h, then transferred to the coated wells for 1 h at 25 °C; free hIL-10R1-Fc detected with anti-human IgG
# [4] = biological target: Pseudocowpox virus interleukin-10, FLAG-tagged (Pseudocowpox virus); assay: non-reducing SDS-PAGE with anti-FLAG Western blot; purified FLAG-tagged IL-10 mixed with SDS-PAGE sample buffer without DTT, without boiling; bands detected with HRP-conjugated anti-FLAG M2
# [5] = biological target: hIL-10R1-Fc chimeric protein (extracellular domain of human IL-10 receptor 1 fused to Fc) (human) (UniProt Q13651)
# [6] = biological target: hIL-10R1-Fc chimeric protein (extracellular domain of human IL-10 receptor 1 fused to Fc) (human) (UniProt Q13651); remark: listed apart in the source
# [7] = biological target: T1, hIL-10R1-Fc chimeric protein …; assay: ELISA; competitive displacement ELISA: hIL-10 (400 ng/mL) coated on Maxisorp wells; serially diluted IL-10 preincubated with 300 ng/mL hIL-10R1-Fc in PBS, 0.4% BSA, 0.02% Tween20 at 25 °C for 1 h, then transferred to the coated wells for 1 h at 25 °C; free hIL-10R1-Fc detected with anti-human IgG; conditions: both partners purified
molecule,measurement,setting,value
"Orf virus interleukin-10, FLAG-tagged (ligand)","Emax (Δ%) of hIL-10R1-Fc displacement, relative to hIL-10",[1],105 Δ%
same,pIC50 (negative log10 of the IC50),[1],9.24 M
same,stoichiometry N,[2],2
"Bovine papular stomatitis virus interleukin-10, FLAG-tagged (ligand)","Emax (Δ%) of hIL-10R1-Fc displacement, relative to hIL-10",[3],98.7 Δ%
same,pIC50 (negative log10 of the IC50),[3],8.72 M
"Pseudocowpox virus interleukin-10, FLAG-tagged (ligand)",stoichiometry N,[4],2
same,"Emax (Δ%) of hIL-10R1-Fc displacement, relative to hIL-10",[3],94.6 Δ%
same,pIC50 (negative log10 of the IC50),[3],7.66 M
"Grey sealpox virus interleukin-10, FLAG-tagged (ligand)","Emax (Δ%, relative to hIL-10) of inhibition of IL-1β production by LTA-stimulated human THP-1 monocytes, 48 h",[5],25.8 Δ%
same,"Emax (Δ%, relative to hIL-10) of inhibition of IL-8 production by LTA-stimulated human THP-1 monocytes, 24 h (pIC50 ND)",[5],50.1 Δ%
same,"Emax (Δ%, relative to hIL-10) of inhibition of MCP-1 production by LTA-stimulated human THP-1 monocytes, 24 h (pIC50 ND)",[5],31 Δ%
same,"pIC50 (M) of inhibition of IL-1β production by LTA-stimulated human THP-1 monocytes, 48 h",[5],11 M (pIC50)
same,"Emax (Δ%, relative to hIL-10) of stimulation of murine MC/9 mast cell proliferation (with IL-3 and IL-4), 48 h",[6],25.8 Δ%
same,"pEC50 (M) of stimulation of murine MC/9 mast cell proliferation (with IL-3 and IL-4), 48 h",[6],9.3 M (pEC50)
"Red deerpox virus interleukin-10, FLAG-tagged (ligand)","Emax (Δ%) of hIL-10R1-Fc displacement, relative to hIL-10",[3],108 Δ%
same,pIC50 (negative log10 of the IC50),[3],9.51 M
B1,"Emax (Δ%) of hIL-10R1-Fc displacement, relative to hIL-10",[7],100 Δ%
same,pIC50 (negative log10 of the IC50),[7],8.79
